In assay [1] the test system is STn on bovine submaxillary mucin (BSM). The experiment in a line: Anti-STn BSM ELISA, non-treated and periodate-treated wells. In kind it is binding. The conditions noted are these: for hybridoma screening: specificity for STn: BSM ELISA without and after periodate treatment. The method, then: Anti-STn serum titer is determined using a murine anti-STn bovine submaxillary mucin (BSM) ELISA together with serum profiles observed by glycan microarray. 96-well plates are coated with 1 μg/well of BSM and incubated overnight at 4° C. O-acetylation of BSM antigen is removed by treating wells with 0.1 M sodium hydroxide. Specific binding to STn is determined by treatment of wells with sodium periodate. Periodate treatment destroys the […] side chain of sialic acid; therefore antibodies raised against STn should not bind to periodate-treated wells. Wells are blocked with PBS 1% ovalbumin (OVA). Serum samples to be assayed are serially diluted in PBS 1% OVA. A commercially available mouse anti-STn monoclonal antibody, 3F1 (SBH Sciences, Natick, Mass.) is used as a positive control. This antibody is also serially diluted in PBS with 1% OVA. A pool of serum from naïve wild type mice is used for the preparation of negative control samples. Detection of anti-STn antibodies present in serum is determined using an HRP-conjugated polyclonal goat anti-mouse IgG antibody (Jackson Immunoresearch, West Grove, Pa.). The reaction is stopped by addition of sulfuric acid (1.6 M). Optical densities are measured at 490 nm using a Spectramax microplate reader (Molecular Devices, Sunnyvale, Calif.). The serum titer is obtained by comparison of OD values with a cutoff value calculated as two standard deviations above the mean of optical density values of the negative control. Sample tests are considered positive if the mean optical density value is greater than the cutoff value.
Binding affinities of 18D2 and 18C7 to STn were compared to commercially available anti-STn antibodies using the BSM ELISA assay described in Example 2. Commercial anti-STn antibodies used for comparison included 3F1 (SBH Sciences, Natick, Mass.,) TAG-72 clone B72.3 (Thermo Fisher Scientific, Waltham, Mass.,) TAG-72 clone CC49 (Santa Cruz Biotechnology, Santa Cruz, Calif.) as well as a negative control antibody against c-myc (Thermo Fisher Scientific, Waltham, Mass.). Each antibody was titrated using a 7-point, 1:5 serial dilution starting from 100 nM. Titrated antibodies were added to BSM ELISA plates containing wells that were non-treated or treated with sodium periodate. Antibody binding was determined using HRP-conjugated polyclonal goat anti-mouse IgG antibody (Jackson Immunoresearch Laboratories, West Grove, Pa.). The reaction was developed using an HRP substrate and stopped with 1.6 M sulfuric acid. Optical densities were measured at 490 nm using a Spectramax microplate reader. […] The half maximal effective concentration (EC50) for each antibody was calculated using a non-linear regression analysis carried out on periodate subtracted data.

For a further assay, the system named is MDA-MD-231 STn cells. The experiment in a line: Antibody internalization by fluorescence microscopy cell counts, STn+ cells. Format: cell-based, human. The conditions noted are these: for Net cell counts of cells showing positive internalization: 10 μg/ml antibody; for level of internalization (comparison of antibodies): microscopy. The method, then: 6-well culture dishes were prepared with collagen-coated coverslips in the center of 4 wells of each dish. Wells were seeded with either 10^5 cells/well of MDA-MD-231 cells or with 10^6 cells/well of MDA-MD-231 STn cells (expressing STn) and cultured for 24 hours.
10 μg/ml antibody solutions were prepared in cell culture media. A separate solution was prepared for each of LA22 antibody (EMD Millipore, Burlington, Mass.) as a positive control for cell surface binding, S3F antibody (internal reagent) as a positive control for STn binding, 8C11, 2D4, 7G9, 10A5 and GB26.16 (QED Bioscience, San Diego, Calif.) as a negative control. Media were removed from wells and 100 μl of each antibody solution was added to separate coverslips. Coverslips were covered with parafilm and incubated for 30 minutes at 4° C. to allow antibody binding. Antibody solutions were removed by washing and fresh media was added to each well. Cells were incubated at 37° C. for 15, 30, 60 or 240 min to allow for antibody internalization.
After incubation, cells were prepared for microscopy. Cells were washed with PBS and fixed with paraformaldehyde fixation buffer (PFA) containing 3% paraformaldehyde and 2% sucrose in PBS for 15 minutes at room temperature. Cells were rinsed again in PBS and treated with blocking buffer made up of PBS with 1% bovine serum albumin (BSA) or with permeabilization buffer made up of blocking buffer with 0.1% TX-100. Cells were incubated in for 30 min at room temperature, rinsed in PBS and treated with secondary antibody (ALEXA FLUOR® 488-labeled goat-anti-mouse IgG) for 2 hours at room temperature. Cells were rinsed again in PBS and treated with DAPI nuclear stain for 5 min at room temperature in the dark. Cells were rinsed again in PBS and mounted for fluorescence microscopy.

B1: 18C7: anti-STn mouse monoclonal, IgG2c κ, from mouse #4436; VH SEQ ID NO: 4, VL SEQ ID NO: 5 (antibody, V domains shown)
VH: QVTLKESGPGILQPSQTLSLTCSFSGFSLSTFGMGVGWIRQPSGKGLEWLAHIWWDDDKYYNPALKSRLTISKDTSKNQVFLKIANVDTADTATYYCARIAYYYGSERDYWGQGTTLTVSS
VL: QIVLTQSPAIMSASPGEKVTMTCSASSSISYMHWYHQKPGTSPKRWIYDTSKLASGVPARFSGSGSGTSYSLTISSMEAEDAATYYCHQRSSYTFGGGTKLEIKR
What is called EC50 is the concentration needed to bring the measured effect to its halfway point. Regarding B1, in assay [1], the “hybridoma screening: specificity for STn” value was “specific for STn”. In addition, the “binding to non-treated wells” value in assay [1] (BSM ELISA, wells not treated with sodium periodate) was “bound non-treated wells”. Further, in assay [1] (BSM ELISA, wells treated with sodium periodate), the “binding to periodate-treated wells” value was “did not bind to periodate-treated wells”. The EC50 in assay [1] (non-linear regression on periodate subtracted data, 7-point 1:5 dilution from 100 nM) amounted to 62.5 nM.

B2: S3F: 3F1 variable domains combined with IgG2a constant domains; heavy chain SEQ ID NO: 63, light chain SEQ ID NO: 64 (antibody)
heavy: QVQLQQSDAELVKPGASVKISCKASGYTFTDHAIHWVKQKPEQGLDWIGYISPGNGDIKYNEKFKDKVTLTADKSSSTACMHLNSLTSEDSAVYFCKRSLLALDYWGQGTTLTVSSAKTTAPSVYPLAPVCGDTTGSSVTLGCLVKGYFPEPVTLTWNSGSLSSGVHTFPAVLQSDLYTLSSSVTVTSSTWPSQSITCNVAHPASSTKVDKKIEPRGPTIKPCPPCKCPAPNLLGGPSVFIFPPKIKDVLMISLSPIVTCVVVDVSEDDPDVQISWFVNNVEVHTAQTQTHREDYNSTLRVVSALPIQHQDWMSGKEFKCKVNNKDLPAPIERTISKPKGSVRAPQVYVLPPPEEEMTKKQVTLTCMVTDFMPEDIYVEWTNNGKTELNYKNTEPVLDSDGSYFMYSKLRVEKKNWVERNSYSCSVVHEGLHNHHTTKSFSRTPGK
light: DIVMTQSHKFMSTSVGDRVSITCKASQDVGTNIAWYQQKPGRSPKVLIYSASTRHTGVPDRFTGSGSGTDFTLTISNVQSEDLTDYFCQQYSSFPLTFGVGTKLELKRADAAPTVSIFPPSSEQLTSGGASVVCFLNNFYPKDINVKWKIDGSERQNGVLNSWTDQDSKDSTYSMSSTLTLTKDEYERHNSYTCEATHKTSTSPIVKSFNRNEC
Consider B2, for which the “Net cell counts of cells showing positive internalization” value (“Net cell counts” below) is listed as 426 with MDA-MD-231 STn cells (15 min at 37° C.); 410 in the assay on MDA-MD-231 STn cells (30 min at 37° C.); 350 with MDA-MD-231 STn cells (60 min at 37° C.); 259 in the assay with MDA-MD-231 STn cells (4 hr at 37° C.); 276 in the assay on MDA-MD-231 STn cells (4 hr, no perm).

B3: 10A5: anti-STn mouse monoclonal, IgG2c κ, from mouse #4406; VH SEQ ID NO: 6, VL SEQ ID NO: 7 (antibody, V domains shown)
VH: QVQLKESGPGLVAPSQSLSITCTVSGFSLTSYGVSWVRQPPGKGLEWLGVIWGDGSTNYHSSLISRLSISKDNSKSQVFLKLNSLQTDDTATYYCARAFVYWGQGTLVTVSA
VL: QIVLTQSPAIMSASPGEKVTMTCSASSSVSYIHWYQQKSGTSPKRWIYDTSKLASGVPARFSGSGSGTSYSLTISSMEAEDAATYYCQQWSSNPPMLTFGAGTKLELK
As to B3, in assay [1], the “hybridoma screening: specificity for STn” value is on record as “specific for STn”. Also, the “Net cell counts” value is given as 267 with MDA-MD-231 STn cells (15 min at 37° C.); 346 with MDA-MD-231 STn cells (30 min at 37° C.); 75 in the assay with MDA-MD-231 STn cells (60 min at 37° C.); 93 with MDA-MD-231 STn cells (4 hr at 37° C.); 97 in the assay on MDA-MD-231 STn cells (4 hr, no perm).

B4: 7G9: anti-STn mouse monoclonal, IgG2b κ, from mouse #4407; VH SEQ ID NO: 12, VL SEQ ID NO: 9 (antibody, V domains shown)
VH: QVQLKESGPGLVAPSQNLSITCTVSGFSLTSYGVNWVRQPPGKGLEWLGVIWGDGSTNYHSALISRLIISKENSKSQVFLKLNSLQTNDTATYYCTKGFVYWGQGTLVTVSA
VL: QIVLTQSPAIMSASPGEKVTMTCSASSSVSYMHWYQQKSGTSPKRWIFDTSKLASGVPARFSGSGSGTSYSLTISSMEAEDAATYYCQQWSSNLLTFGAGTKLELK
B4: in assay [1], the “hybridoma screening: specificity for STn” value is reported as “specific for STn”. Also, the “Net cell counts” value in the assay on MDA-MD-231 STn cells (15 min at 37° C.) is 458; with MDA-MD-231 STn cells (30 min at 37° C.) it was 154; in the assay with MDA-MD-231 STn cells (60 min at 37° C.) it was 126; in the assay with MDA-MD-231 STn cells (4 hr at 37° C.), 61; in the assay on MDA-MD-231 STn cells (4 hr, no perm), 145.

B5: 2D4: anti-STn mouse monoclonal, IgG2b κ, from mouse #4407; VH SEQ ID NO: 10, VL SEQ ID NO: 11 (antibody, V domains shown)
VH: QVQLQESGPGLVAPSQSLSITCTVSGFSLISYGVNWVRQPPGKGLEWLGVIWGDGSTNYQSALISRLIISKDNSKSQVFLKLNSLQTDDTATYYCTKGFAYWGQGTLVTVSA
VL: QIVLTQSPAIMSASPGEKVTMTCSASSSVSYMHWFQQKSGTSPKRWIYDTSKLASGVPARFSGSGSGTSYSLTISSMEAEDAATYYCQQWSSNLLTFGAGTKLELK
B5: the “hybridoma screening: specificity for STn” value in assay [1] is on record as “specific for STn”. Besides, the “Net cell counts” value in the assay on MDA-MD-231 STn cells (15 min at 37° C.) was found to be 1340; in the assay on MDA-MD-231 STn cells (30 min at 37° C.), 413; with MDA-MD-231 STn cells (60 min at 37° C.), 533; with MDA-MD-231 STn cells (4 hr at 37° C.), 325; in the assay on MDA-MD-231 STn cells (4 hr, no perm), 536. In addition, in the assay with MDA-MD-231 STn cells, the “level of internalization (comparison of antibodies)” value is listed as “greatest levels of internalization”.

B6: 8C11: anti-STn mouse monoclonal, IgG2b κ, from mouse #4407; VH SEQ ID NO: 8, VL SEQ ID NO: 9 (antibody, V domains shown)
VH: QVQLKESGPGLVAPSQSLSITCTVSGFSLTSYGVSWVRQPPGKGLEWLGVIWGDGSTNYHSALISRLIISKDNSKSQVFLKLNSLQTDDTATYYCTKGFTYWGQGTLVTVSA
VL: QIVLTQSPAIMSASPGEKVTMTCSASSSVSYMHWYQQKSGTSPKRWIFDTSKLASGVPARFSGSGSGTSYSLTISSMEAEDAATYYCQQWSSNLLTFGAGTKLELK
As for B6, in assay [1], the “hybridoma screening: specificity for STn” value was “specific for STn”. Further, the “Net cell counts” value was 934 in the assay on MDA-MD-231 STn cells (15 min at 37° C.); 297 with MDA-MD-231 STn cells (30 min at 37° C.); 122 in the assay on MDA-MD-231 STn cells (60 min at 37° C.); 49 in the assay on MDA-MD-231 STn cells (4 hr at 37° C.); 160 in the assay with MDA-MD-231 STn cells (4 hr, no perm). Also, the “level of internalization (comparison of antibodies)” value with MDA-MD-231 STn cells was “greatest levels of internalization”.

These data come from patent publication US20180280504A1, “GLYCAN-INTERACTING COMPOUNDS AND METHODS OF USE” (SIAMAB THERAPEUTICS, INC., priority 2014, published 2018).
